The record followed here is the Human Domainome abundance scans (Beltran et al. 2025).

± gives the uncertainty stated by the source.

B1: Unconventional myosin-Ie, residues 1051 to 1108; numbered along this chain, Q12965 (parent)
chain: PQVPQCKALYAYDAQDTDELSFNANDIIDIIKEDPSGWWTGRLRGKQGLFPNNYVTKI

This data set covers variants of B1. As to the kind of experiment: abundance fitness (aPCA) (normalised: wild type 0, dead -1); higher = more abundant; growth selection in yeast, the domain comes from the species named. To be noted: Homo sapiens.
For PQVPQCKALYAYDAQDTMELSFNANDIIDIIKEDPSGWWTGRLRGKQGLFPNNYVTKI [D18M], the abundance fitness is -0.091 ± 0.045.
The figure for PQVPQCKALYAYDAQDTCELSFNANDIIDIIKEDPSGWWTGRLRGKQGLFPNNYVTKI [D18C] is -0.05 ± 0.059.
Take PQVPQCKALYAYDAQDTNELSFNANDIIDIIKEDPSGWWTGRLRGKQGLFPNNYVTKI [D18N]: the abundance fitness was -0.055 ± 0.077.
As for PQVPQCKALYAYDAQDTQELSFNANDIIDIIKEDPSGWWTGRLRGKQGLFPNNYVTKI [D18Q], the figure is -0.152 ± 0.044.
As for PQVPQCKALYAYDAQDTEELSFNANDIIDIIKEDPSGWWTGRLRGKQGLFPNNYVTKI [D18E], the figure is 0.052 ± 0.054; as for PQVPQCKALYAYDAQDTRELSFNANDIIDIIKEDPSGWWTGRLRGKQGLFPNNYVTKI [D18R], -0.065 ± 0.037; as for PQVPQCKALYAYDAQDTHELSFNANDIIDIIKEDPSGWWTGRLRGKQGLFPNNYVTKI [D18H], -0.279 ± 0.086.
As for PQVPQCKALYAYDAQDTLELSFNANDIIDIIKEDPSGWWTGRLRGKQGLFPNNYVTKI [D18L], the figure is -0.063 ± 0.049.
Take PQVPQCKALYAYDAQDTIELSFNANDIIDIIKEDPSGWWTGRLRGKQGLFPNNYVTKI [D18I]: the abundance fitness is -0.197 ± 0.14.
The figure for PQVPQCKALYAYDAQDTPELSFNANDIIDIIKEDPSGWWTGRLRGKQGLFPNNYVTKI [D18P] is 0.089 ± 0.085; for PQVPQCKALYAYDAQDTGELSFNANDIIDIIKEDPSGWWTGRLRGKQGLFPNNYVTKI [D18G] it is -0.056 ± 0.038.
The figure for PQVPQCKALYAYDAQDTFELSFNANDIIDIIKEDPSGWWTGRLRGKQGLFPNNYVTKI [D18F] is -0.238 ± 0.12; for PQVPQCKALYAYDAQDTAELSFNANDIIDIIKEDPSGWWTGRLRGKQGLFPNNYVTKI [D18A] it is -0.162 ± 0.056.
As for PQVPQCKALYAYDASDTDELSFNANDIIDIIKEDPSGWWTGRLRGKQGLFPNNYVTKI [Q15S], the figure is -0.261 ± 0.083; as for PQVPQCKALYAYDAIDTDELSFNANDIIDIIKEDPSGWWTGRLRGKQGLFPNNYVTKI [Q15I], -0.172 ± 0.079.
As for PQVPQCKALYAYDANDTDELSFNANDIIDIIKEDPSGWWTGRLRGKQGLFPNNYVTKI [Q15N], the abundance fitness came out at 0.037 ± 0.11.
For PQVPQCKALYAYDAEDTDELSFNANDIIDIIKEDPSGWWTGRLRGKQGLFPNNYVTKI [Q15E], the abundance fitness was -0.23 ± 0.087.
The figure for PQVPQCKALYAYDARDTDELSFNANDIIDIIKEDPSGWWTGRLRGKQGLFPNNYVTKI [Q15R] is -0.035 ± 0.03; for PQVPQCKALYAYDAKDTDELSFNANDIIDIIKEDPSGWWTGRLRGKQGLFPNNYVTKI [Q15K] it is -0.186 ± 0.11.
The figure for PQVPQCKALYAYDAPDTDELSFNANDIIDIIKEDPSGWWTGRLRGKQGLFPNNYVTKI [Q15P] is -0.484 ± 0.18; for PQVPQCKALYAYDATDTDELSFNANDIIDIIKEDPSGWWTGRLRGKQGLFPNNYVTKI [Q15T] it is -0.054 ± 0.061.
As for PQVPQCKALYAYDAFDTDELSFNANDIIDIIKEDPSGWWTGRLRGKQGLFPNNYVTKI [Q15F], the figure is -0.291 ± 0.21; as for PQVPQCKALYAYDAADTDELSFNANDIIDIIKEDPSGWWTGRLRGKQGLFPNNYVTKI [Q15A], -0.087 ± 0.03; as for PQVPQCKALYAYDAMDTDELSFNANDIIDIIKEDPSGWWTGRLRGKQGLFPNNYVTKI [Q15M], -0.059 ± 0.064.
On to PQVPQCKALYAYDAWDTDELSFNANDIIDIIKEDPSGWWTGRLRGKQGLFPNNYVTKI [Q15W], for which the abundance fitness is -0.408 ± 0.037.
As to PQVPQCKALYAYDAHDTDELSFNANDIIDIIKEDPSGWWTGRLRGKQGLFPNNYVTKI [Q15H], the abundance fitness was -0.28 ± 0.13.
The figure for PQVPQCKALYAYDAVDTDELSFNANDIIDIIKEDPSGWWTGRLRGKQGLFPNNYVTKI [Q15V] is -0.193 ± 0.038; for PQVPQCKALYAYDAGDTDELSFNANDIIDIIKEDPSGWWTGRLRGKQGLFPNNYVTKI [Q15G] it is -0.157 ± 0.031.
With PQVPQCKALYAYDADDTDELSFNANDIIDIIKEDPSGWWTGRLRGKQGLFPNNYVTKI [Q15D], the abundance fitness is -0.145 ± 0.087.
With PQVPQCKALYAYDAYDTDELSFNANDIIDIIKEDPSGWWTGRLRGKQGLFPNNYVTKI [Q15Y], the abundance fitness is -0.312 ± 0.047.
The figure for PQVPQCKALYAYDALDTDELSFNANDIIDIIKEDPSGWWTGRLRGKQGLFPNNYVTKI [Q15L] is -0.173 ± 0.04.
For PQVPQCKALYAYDACDTDELSFNANDIIDIIKEDPSGWWTGRLRGKQGLFPNNYVTKI [Q15C], the abundance fitness was -0.239 ± 0.11.
As for PQVPQCKALYAYDRQDTDELSFNANDIIDIIKEDPSGWWTGRLRGKQGLFPNNYVTKI [A14R], the abundance fitness was -0.377 ± 0.035.
Take PQVPQCKALYAYDMQDTDELSFNANDIIDIIKEDPSGWWTGRLRGKQGLFPNNYVTKI [A14M]: the abundance fitness was -0.42 ± 0.12.
The figure for PQVPQCKALYAYDHQDTDELSFNANDIIDIIKEDPSGWWTGRLRGKQGLFPNNYVTKI [A14H] is -0.741 ± 0.26; for PQVPQCKALYAYDKQDTDELSFNANDIIDIIKEDPSGWWTGRLRGKQGLFPNNYVTKI [A14K] it is -0.195 ± 0.053.
As for PQVPQCKALYAYDNQDTDELSFNANDIIDIIKEDPSGWWTGRLRGKQGLFPNNYVTKI [A14N], the figure is -0.452 ± 0.19; as for PQVPQCKALYAYDIQDTDELSFNANDIIDIIKEDPSGWWTGRLRGKQGLFPNNYVTKI [A14I], -0.901 ± 0.31.
The figure for PQVPQCKALYAYDGQDTDELSFNANDIIDIIKEDPSGWWTGRLRGKQGLFPNNYVTKI [A14G] is -0.173 ± 0.037; for PQVPQCKALYAYDWQDTDELSFNANDIIDIIKEDPSGWWTGRLRGKQGLFPNNYVTKI [A14W] it is -1.13 ± 0.31.
With PQVPQCKALYAYDSQDTDELSFNANDIIDIIKEDPSGWWTGRLRGKQGLFPNNYVTKI [A14S], the abundance fitness is -0.188 ± 0.061.
With PQVPQCKALYAYDPQDTDELSFNANDIIDIIKEDPSGWWTGRLRGKQGLFPNNYVTKI [A14P], the abundance fitness is -0.371 ± 0.042.
Take PQVPQCKALYAYDLQDTDELSFNANDIIDIIKEDPSGWWTGRLRGKQGLFPNNYVTKI [A14L]: the abundance fitness was -0.98 ± 0.13.
As for PQVPQCKALYAYDQQDTDELSFNANDIIDIIKEDPSGWWTGRLRGKQGLFPNNYVTKI [A14Q], the figure is -0.345 ± 0.08; as for PQVPQCKALYAYDFQDTDELSFNANDIIDIIKEDPSGWWTGRLRGKQGLFPNNYVTKI [A14F], -0.782 ± 0.32.
